In PMC6288613, “Mouse REC114 is essential for meiotic DNA double-strand break formation and forms a complex with MEI4” (Life Science Alliance, 2018):

Biological target: the molecule itself
Assay: SEC-MALS; SEC-MALLS, Superdex 75; 50 ul of purified protein injected at 10, 5 and 2 mg/ml; dimer to monomers, fast exchange

B1: Mouse REC114 (15-159) (domain or fragment, UniProt Q9CWH4 15-159, looked up)
chain: GEVSQWSLKRYGRFMLLDNVGSPGPSSEAAAAGSPTWKVFESSEESGSLVLTIVVSGHFFISQGQTLLEGFSLIGSKNWLKIVRRMDCLLFGTTIKNKSRMFRVQFSGESKEEALERCCGCVQTLAQYVTVQEPDSTTQELQQSQ
notes: REC114, mouse, residues 15-159 (PH domain), expressed from pProEXHTb; final crystallographic model includes residues 15-150; A selenomethionine-substituted form was also crystallised for phasing; also called REC114 PH domain; REC114 N-terminal region; source: E. coli BL21-Gold (DE3), purified (Ni2+ resin, TEV cleavage, second Ni2+ column, size-exclusion chromatography)
With B1 the “stoichiometry N” value was 2.
